From the Human Domainome abundance scans (Beltran et al. 2025)
± gives the uncertainty stated by the source.

B1: Ras GTPase-activating protein 1, residues 281 to 341; numbered along this chain, P20936 (parent)
chain: RRRVRAILPYTKVPDTDEISFLKGDMFIVHNELEDGWMWVTNLRTDEQGLIVEDLVEEVGR
B2: Transcriptional regulator ERG, residues 117 to 197; numbered along this chain, P11308 (parent)
chain: NMTTNERRVIVPADPTLWSTDHVRQWLEWAVKEYGLPDVNILLFQNIDGKELCKMTKDDFQRLTPSYNADILLSHLHYLRE

Variants of: B1
Assay: abundance fitness (aPCA) (normalised: wild type 0, dead -1); higher = more abundant; growth selection in yeast, the domain comes from the species named
Settings: Homo sapiens

Abundance fitness: each site, then its substitutions
I7: L -0.066 ± 0.03; C -0.231 ± 0.029; H -0.305 ± 0.036; M -0.167 ± 0.065; E -0.551 ± 0.1; A -0.63 ± 0.054; G -0.735 ± 0.044; K 0.037 ± 0.072; D -1.01 ± 0.08
R1: F 0.06 ± 0.058; I 0.072 ± 0.034; N 0.063 ± 0.037; D 0.122 ± 0.053; M 0.087 ± 0.074; L -0.067 ± 0.056; P -0.283 ± 0.13; T 0.029 ± 0.04; K 0.058 ± 0.11; V -0.016 ± 0.038; W -0.315 ± 0.059; Q -0.503 ± 0.39; C -0.065 ± 0.031; G -0.098 ± 0.047; Y 0.018 ± 0.042; A -0.129 ± 0.047
R5: P -0.919 ± 0.074; Q -0.01 ± 0.057; G -0.796 ± 0.045; I -0.055 ± 0.03; W -0.531 ± 0.061; N -0.754 ± 0.044; H -0.398 ± 0.036; M -0.025 ± 0.055; E -0.138 ± 0.056; T -0.21 ± 0.033; V -0.007 ± 0.027; A -0.354 ± 0.037; C -0.072 ± 0.03; F -0.398 ± 0.031; Y -0.331 ± 0.03; L -0.256 ± 0.031; S -0.272 ± 0.027; K 0.052 ± 0.062; D -0.86 ± 0.067
R2: K 0.027 ± 0.08; F -0.196 ± 0.032; P -0.189 ± 0.044; E 0.007 ± 0.084; N -0.099 ± 0.028; T -0.128 ± 0.032; H -0.183 ± 0.038; I -0.159 ± 0.027; L -0.187 ± 0.031; W -0.371 ± 0.055; V -0.232 ± 0.031; D -0.179 ± 0.034; G -0.241 ± 0.028; S -0.164 ± 0.024; M -0.053 ± 0.055; Q -0.172 ± 0.065; Y -0.103 ± 0.034; C -0.347 ± 0.03
R3: T -0.136 ± 0.037; G -0.383 ± 0.028; W -0.378 ± 0.054; H -0.096 ± 0.032; M -0.158 ± 0.057; V -0.1 ± 0.028; C -0.212 ± 0.029; Y -0.045 ± 0.031; S -0.136 ± 0.025; K -0.01 ± 0.064; F 0.004 ± 0.032; L -0.09 ± 0.028; D -0.514 ± 0.037; Q -0.066 ± 0.06; I -0.073 ± 0.031; N -0.126 ± 0.032; A -0.292 ± 0.035; P -0.51 ± 0.04
V4: E -0.929 ± 0.074; I -0.205 ± 0.023; K -0.626 ± 0.043; Q -0.848 ± 0.062; N -0.865 ± 0.033; F -0.082 ± 0.021; T -0.605 ± 0.027; L -0.055 ± 0.021; M -0.074 ± 0.032; C -0.465 ± 0.023; W -0.597 ± 0.038; R -0.631 ± 0.025; P -0.903 ± 0.045; H -0.739 ± 0.03; G -0.901 ± 0.027; A -0.462 ± 0.026; S -0.895 ± 0.027
A6: E -0.819 ± 0.054; C -0.829 ± 0.027; R -0.908 ± 0.029; H -0.925 ± 0.034; F -0.919 ± 0.03; N -0.908 ± 0.032; Q -0.915 ± 0.061; T -0.84 ± 0.034; P -1.04 ± 0.05; V -0.899 ± 0.028; L -0.896 ± 0.029; S -0.258 ± 0.02; D -0.953 ± 0.035; W -0.953 ± 0.051; I -0.885 ± 0.031; M -0.804 ± 0.05

Variants of: B2
Assay: as above
Settings: Homo sapiens

Abundance fitness of substitutions, site by site:
L76: V -0.105 ± 0.067; K -0.519 ± 0.2; S -0.576 ± 0.19; Y -0.663 ± 0.38; N -0.794 ± 0.33; E -0.742 ± 0.27; W -0.411 ± 0.12; I 0.05 ± 0.32; Q -0.928 ± 0.41; A -0.342 ± 0.14; M -0.262 ± 0.13; H -0.237 ± 0.25; P -0.923 ± 0.3; R -0.944 ± 0.15; G -0.802 ± 0.12; C -0.151 ± 0.1
H77: A 0.034 ± 0.065; K 0.044 ± 0.1; I 0.142 ± 0.18; N 0.112 ± 0.1; L -0.087 ± 0.067; W -0.166 ± 0.11; F -0.226 ± 0.16; G 0.194 ± 0.061; M -0.24 ± 0.1; Y -0.295 ± 0.18; E 0.099 ± 0.079; Q -0.098 ± 0.1; D -0.128 ± 0.11; R 0.052 ± 0.05; S -0.026 ± 0.073; V -0.072 ± 0.065; T -0.119 ± 0.11
L79: R -0.002 ± 0.056; H -0.076 ± 0.12; V 0.046 ± 0.05; E -0.054 ± 0.086; N -0.259 ± 0.23; S -0.141 ± 0.071; T 0.021 ± 0.094; Y -0.454 ± 0.18; K -0.014 ± 0.092; G -0.195 ± 0.052; P -0.19 ± 0.1; Q -0.007 ± 0.087; C 0.114 ± 0.091; I 0.061 ± 0.11; F -0.215 ± 0.11; D -0.106 ± 0.12; M 0.179 ± 0.098
A69: S -0.352 ± 0.23; V -0.039 ± 0.057; L -0.658 ± 0.17; Q -0.564 ± 0.49; M -0.186 ± 0.11; R -0.748 ± 0.12; P -0.124 ± 0.14; K -0.445 ± 0.17; W -0.203 ± 0.14; T -0.219 ± 0.14; G -0.124 ± 0.054
S74: H 0.246 ± 0.14; N 0.032 ± 0.15; P -0.352 ± 0.12; L -0.217 ± 0.095; C -0.115 ± 0.085; R 0.006 ± 0.043; Q -0.073 ± 0.1; I -0.342 ± 0.17; T 0.078 ± 0.08; G 0.026 ± 0.039; M -0.124 ± 0.095; W -0.603 ± 0.15; V -0.138 ± 0.066; D -0.064 ± 0.083; F -0.379 ± 0.13; Y -0.018 ± 0.12
L73: Y -0.054 ± 0.17; S -0.063 ± 0.061; M 0.015 ± 0.074; N -0.201 ± 0.16; T -0.016 ± 0.059; D -0.156 ± 0.12; E -0.293 ± 0.081; K -0.292 ± 0.093; R -0.039 ± 0.043; G -0.183 ± 0.047; A 0.023 ± 0.052; H -0.061 ± 0.091; P -0.634 ± 0.2; W -0.028 ± 0.056; C 0.075 ± 0.092; V -0.028 ± 0.057; Q -0.144 ± 0.093; I -0.034 ± 0.16
L72: C -0.726 ± 0.13; H -0.909 ± 0.45; W -0.653 ± 0.087; P -0.649 ± 0.26; R -0.714 ± 0.077; E -0.719 ± 0.11; Y -0.669 ± 0.18; V -0.471 ± 0.11; D -0.97 ± 0.33; I -0.199 ± 0.34; Q -0.697 ± 0.18; G -0.953 ± 0.086; S -0.801 ± 0.13; N -1.02 ± 0.49; A -0.821 ± 0.11; T -0.543 ± 0.12; K -0.952 ± 0.27
H75: W -1 ± 0.3; I -0.215 ± 0.21; Q 0.038 ± 0.11; T -0.646 ± 0.23; M -1.02 ± 0.34; A -0.01 ± 0.07; G -0.156 ± 0.052; P -0.561 ± 0.33; E -0.163 ± 0.099; N 0.099 ± 0.13; D 0.119 ± 0.095; L -0.316 ± 0.11; R 0.121 ± 0.05; V -0.62 ± 0.13; Y -0.113 ± 0.12; F -0.511 ± 0.16
Y78: Q 0.2 ± 0.088; F -0.087 ± 0.13; S 0.148 ± 0.056; E 0.247 ± 0.059; M 0.163 ± 0.078; T 0.173 ± 0.087; W -0.22 ± 0.087; D 0.228 ± 0.081; H -0.119 ± 0.13; K 0.103 ± 0.085; G 0.203 ± 0.044; N 0.305 ± 0.094; V 0.071 ± 0.065; P -0.033 ± 0.08; C 0.029 ± 0.13; I 0.034 ± 0.089; L 0.12 ± 0.051; A 0.181 ± 0.053
D70: N -0.143 ± 0.1; H -0.011 ± 0.15; V -0.176 ± 0.056; G -0.05 ± 0.038; F -0.448 ± 0.25; P -0.316 ± 0.13; T -0.157 ± 0.078; R -0.036 ± 0.038; M -0.237 ± 0.084; E 0.07 ± 0.049; Y -0.293 ± 0.18; K -0.097 ± 0.081; S -0.1 ± 0.056; W -0.42 ± 0.076; A -0.169 ± 0.058; L -0.24 ± 0.053; Q -0.042 ± 0.062
I71: Y -0.266 ± 0.14; N -0.624 ± 0.23; K 0.074 ± 0.064; A 0.036 ± 0.042; G -0.174 ± 0.037; D -0.359 ± 0.089; E -0.151 ± 0.053; S -0.148 ± 0.056; V 0.059 ± 0.041; T 0.05 ± 0.074; Q 0.03 ± 0.055; H 0.001 ± 0.091; P 0.06 ± 0.084; F -0.272 ± 0.11; W -0.282 ± 0.064; R 0.113 ± 0.036; M 0.065 ± 0.077
R80: G -0.152 ± 0.054; C 0.178 ± 0.088; K -0.004 ± 0.1; N 0.193 ± 0.17; A 0.021 ± 0.061; F 0.003 ± 0.089; V -0.046 ± 0.055; Q 0.071 ± 0.11; M 0.038 ± 0.08; S -0.109 ± 0.064; E -0.166 ± 0.15; Y -0.466 ± 0.24; H 0.068 ± 0.47; P -0.01 ± 0.083
N68: K -0.266 ± 0.08; P 0.017 ± 0.064; Q 0.085 ± 0.066; E 0.085 ± 0.049; F -0.468 ± 0.19; I -0.079 ± 0.12; V 0.008 ± 0.046; L -0.48 ± 0.081; M -0.155 ± 0.08; R -0.275 ± 0.045; D 0.021 ± 0.092; S 0.011 ± 0.054
E81: N 0.557 ± 0.38; F -0.339 ± 0.19; W -0.32 ± 0.086; Y -0.058 ± 0.21; A -0.03 ± 0.089; P -0.107 ± 0.15; Q 0.016 ± 0.14; M -0.301 ± 0.17; V -0.155 ± 0.088; L 0.076 ± 0.14; I -0.152 ± 0.24; H 0.108 ± 0.18; G 0.138 ± 0.057; D 0.102 ± 0.14; C -0.05 ± 0.092
